Data from paper PMC4865440.

Target: recombinant gp120 from HIV-1 strain IIIB (HIV-1 strain IIIB) (UniProt P04578)

For “griffithsin produced in Escherichia coli (^ECGRFT) (from UniProt P84801 1-121) (natural protein)”, the EC50 of whole-cell HIV neutralization assay (XTT viability of CEM-SS cells challenged with HIV-1RF), purified ^ECGRFT was 330 pM.
“griffithsin produced in rice endosperm (^OSGRFT), His6-tagged (from UniProt P84801 1-121) (natural protein)” gave an EC50 of whole-cell HIV neutralization assay (XTT viability of CEM-SS cells challenged with HIV-1RF), purified ^OSGRFT of 270 pM.
